Experimental data from patent US20130108608.

Biological target: T1, recombinant human full-length TrpRS with C-terminal His6 tag
T1 chain: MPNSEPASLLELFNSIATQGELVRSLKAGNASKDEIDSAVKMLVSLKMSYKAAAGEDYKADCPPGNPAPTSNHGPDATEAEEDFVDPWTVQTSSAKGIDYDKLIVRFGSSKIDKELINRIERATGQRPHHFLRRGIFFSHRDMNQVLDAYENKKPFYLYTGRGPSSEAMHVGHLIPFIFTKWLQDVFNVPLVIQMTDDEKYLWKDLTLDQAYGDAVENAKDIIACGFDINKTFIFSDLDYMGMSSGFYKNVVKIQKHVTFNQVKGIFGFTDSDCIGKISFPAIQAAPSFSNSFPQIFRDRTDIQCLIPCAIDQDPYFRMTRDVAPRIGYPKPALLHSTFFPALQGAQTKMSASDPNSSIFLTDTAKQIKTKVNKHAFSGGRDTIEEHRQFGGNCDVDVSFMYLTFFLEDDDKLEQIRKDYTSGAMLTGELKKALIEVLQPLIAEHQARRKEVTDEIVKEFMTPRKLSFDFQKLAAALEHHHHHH

B1: PMN elastase (protein)
chain: IVGGRRARPHAWPFMVSLQLRGGHFCGATLIAPNFVMSAAHCVANVNVRAVRVVLGAHNLSRREPTRQVFAVQRIFENGYDPVNLLNDIVILQLNGSATINANVQVAQLPAQGRRLGNGVQCLAMGWGLLGRNRGIASVLQELNVTVVTSLCRRSNVCTLVRGRQAGVCFGDSGSPLVCNGLIHGIASFVRGGCASGLYPDAFAPVAQFVNWIDSIIQ
With B1 the “cleavage of TrpRS by the protease, fragments on 12.5% SDS-PAGE” value was “PMN elastase cleavage of a full-length TrpRS of about 53 kDa generated a major fragment of about 46 kDa (SEQ ID NO: 5, T1, having the C-terminal histidine tag, or an SY variant thereof) and a minor fragment of about 43.5 kDa”.
